Test results from patent publication US20260209386A1 (MYTHIC THERAPEUTICS, published 2026).
Changes are numbered by the printed parent chain.

T1: Human PTK7/CCK4 Protein, His Tag, Acro Biosystems PT7-H52H3 (human, UniProt Q13308 31-704)
T1 construct: bought protein; also called Human PTK7 Protein, His Tag, Acro Biosystems; not shown: His tag
T1 sequence: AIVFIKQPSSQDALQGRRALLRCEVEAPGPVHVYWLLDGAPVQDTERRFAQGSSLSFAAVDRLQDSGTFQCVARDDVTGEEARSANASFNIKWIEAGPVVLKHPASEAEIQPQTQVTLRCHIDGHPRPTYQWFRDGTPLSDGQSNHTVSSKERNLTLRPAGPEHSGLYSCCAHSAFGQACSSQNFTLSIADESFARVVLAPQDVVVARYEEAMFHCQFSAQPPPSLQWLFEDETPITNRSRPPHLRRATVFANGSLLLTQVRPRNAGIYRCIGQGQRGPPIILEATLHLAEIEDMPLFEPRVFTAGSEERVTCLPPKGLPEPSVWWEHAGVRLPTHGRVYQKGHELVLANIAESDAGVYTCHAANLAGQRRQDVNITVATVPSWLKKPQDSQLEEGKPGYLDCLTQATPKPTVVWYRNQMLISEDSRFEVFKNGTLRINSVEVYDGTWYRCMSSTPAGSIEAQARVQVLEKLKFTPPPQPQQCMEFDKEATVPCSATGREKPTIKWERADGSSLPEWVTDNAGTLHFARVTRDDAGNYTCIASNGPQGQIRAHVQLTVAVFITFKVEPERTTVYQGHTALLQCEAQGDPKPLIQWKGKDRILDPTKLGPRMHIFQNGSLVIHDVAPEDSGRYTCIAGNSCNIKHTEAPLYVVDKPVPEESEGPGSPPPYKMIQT

B1: MYT10951 (antibody, V domains shown)
VH: EVQLVESGGGLVQPGGSLRLSCTASHFSLSSYAMGWVRQAPGKGLEWVGFINAGGNTYYANWAKGRFTISRDTSKNTVYLQMNSLRAEDTAVYFCARRYSRASGWYDLWGQGTLVTVSS
VL: EIVMTQSPSTLSASVGDRVIITCQASQSISSYLAWYQQKPGKAPKLLIYAASTLASGVPSRFSGSGSGAEFTLTISSLQPDDFATYYCQSYSYSSGIDYGDVFGQGTKLTVL
notes: IgG
B2: MYT10998 (antibody, V domains shown)
VH: B1 VH with H26G
VL: B1 VL with S30H
notes: IgG
B3: MYT10993 (antibody, V domains shown)
VH: B1 VH with H26G
VL: B1 VL with A25H
notes: IgG
B4: MYT10970 (antibody, V domains shown)
VH: B1 VH with H26G, Y59H
VL: B1 VL
notes: IgG
B5: MYT10974 (antibody, V domains shown)
VH: B1 VH with H26G, A63H
VL: B1 VL
notes: IgG
B6: MYT10980 (antibody, V domains shown)
VH: B1 VH with H26G, Y99H
VL: B1 VL
notes: IgG
B7: MYT10978 (antibody, V domains shown)
VH: B1 VH with H26G, R97H
VL: B1 VL
notes: IgG
B8: MYT10966 (antibody, V domains shown)
VH: B1 VH with H26G, G55H
VL: B1 VL
notes: IgG
B9: MYT10957 (antibody, V domains shown)
VH: B1 VH with H26G, Y32H
VL: B1 VL
notes: IgG
B10: MYT10962 (antibody, V domains shown)
VH: B1 VH with H26G, I51H
VL: B1 VL
notes: IgG
B11: MYT10997 (antibody, V domains shown)
VH: B1 VH with H26G
VL: B1 VL with I29H
notes: IgG
B12: MYT10963 (antibody, V domains shown)
VH: B1 VH with H26G, N52H
VL: B1 VL
notes: IgG
B13: MYT10959 (antibody, V domains shown)
VH: B1 VH with H26G, M34H
VL: B1 VL
notes: IgG
B14: MYT10969 (antibody, V domains shown)
VH: B1 VH with H26G, Y58H
VL: B1 VL
notes: IgG
B15: MYT10888 (antibody, V domains shown)
VH: EVQLVESGGGLVQPGGSLRLSCTASGFSHSNYVMNWVRQAPGKGLEWVGIIDSSGSTYYASWAKGRFTISRDTSKNTVYLQMNSLRAEDTAVYFCARGLYLWGQGTLVTVSS
VL: EIVMTQSPSTLSASVGDRVIITCQSSQSVYNNNLLAWYQQKPGKAPKLLIYYTSNLASGVPSRFSGSGSGAEFTLTISSLQPDDFATYYCQGGYNGNIYAFGQGTKLTVL
notes: IgG
B16: MYT10946 (antibody, V domains shown)
VH: B15 VH with H29L
VL: B15 VL with I98H
notes: IgG
B17: MYT10943 (antibody, V domains shown)
VH: B15 VH with H29L
VL: B15 VL with N95H
notes: IgG
B18: MYT10897 (antibody, V domains shown)
VH: B15 VH with H29L, D52H
VL: B15 VL
notes: IgG
B19: MYT10889 (antibody, V domains shown)
VH: B15 VH with H29L, S30H
VL: B15 VL
notes: IgG
B20: MYT10895 (antibody, V domains shown)
VH: B15 VH with H29L, I50H
VL: B15 VL
notes: IgG
B21: MYT10927 (antibody, V domains shown)
VH: B15 VH with H29L
VL: B15 VL with N32H
notes: IgG
B22: MYT10937 (antibody, V domains shown)
VH: B15 VH with H29L
VL: B15 VL with A57H
notes: IgG
B23: MYT10930 (antibody, V domains shown)
VH: B15 VH with H29L
VL: B15 VL with L35H
notes: IgG
B24: MYT10898 (antibody, V domains shown)
VH: B15 VH with H29L, S53H
VL: B15 VL
notes: IgG
B25: MYT10944 (antibody, V domains shown)
VH: B15 VH with H29L
VL: B15 VL with G96H
notes: IgG
B26: MYT10925 (antibody, V domains shown)
VH: B15 VH with H29L
VL: B15 VL with Y30H
notes: IgG
B27: MYT10935 (antibody, V domains shown)
VH: B15 VH with H29L
VL: B15 VL with N55H
notes: IgG
B28: MYT10949 (antibody, V domains shown)
VH: B15 VH with H29L
VL: B15 VL with T108E, V109I, L110K
notes: IgG
B29: MYT10896 (antibody, V domains shown)
VH: B15 VH with H29L, I51H
VL: B15 VL
notes: IgG
B30: MYT10905 (antibody, V domains shown)
VH: B15 VH with H29L, A60H
VL: B15 VL
notes: IgG
B31: MYT10903 (antibody, V domains shown)
VH: B15 VH with H29L, Y58H
VL: B15 VL
notes: IgG
B32: MYT10928 (antibody, V domains shown)
VH: B15 VH with H29L
VL: B15 VL with N33H
notes: IgG
B33: MYT10916 (antibody, V domains shown)
VH: B15 VH with H29L, L101H
VL: B15 VL
notes: IgG
B34: MYT10942 (antibody, V domains shown)
VH: B15 VH with H29L
VL: B15 VL with Y94H
notes: IgG
B35: MYT10936 (antibody, V domains shown)
VH: B15 VH with H29L
VL: B15 VL with L56H
notes: IgG
B36: MYT10891 (antibody, V domains shown)
VH: B15 VH with H29L, Y32H
VL: B15 VL
notes: IgG
B37: MYT10911 (antibody, V domains shown)
VH: B15 VH with H29L, A96H
VL: B15 VL
notes: IgG
B38: MYT10939 (antibody, V domains shown)
VH: B15 VH with H29L
VL: B15 VL with Q91H
notes: IgG
B39: MYT10926 (antibody, V domains shown)
VH: B15 VH with H29L
VL: B15 VL with N31H
notes: IgG
B40: MYT10920 (antibody, V domains shown)
VH: B15 VH with H29L
VL: B15 VL with S25H
notes: IgG

biological target: T1, Human PTK7/CCK4 Protein, His Tag, Acro …; assay: BLI, antibody on anti-human Fc sensor, 50 nM PTK7

| binding result | Binder |
| --- | --- |
| binds | B1 |
| binds | B2 |
| binds | B3 |
| binds | B4 |
| binds | B5 |
| binds | B6 |
| binds | B7 |
| binds | B8 |
| binds | B9 |
| binds | B10 |
| binds | B11 |
| binds | B12 |
| binds | B13 |
| binds | B14 |
| binds | B15 |
| binds | B16 |
| binds | B17 |
| binds | B18 |
| binds | B19 |
| binds | B20 |

| binding result | Binder |
| --- | --- |
| binds | B21 |
| binds | B22 |
| binds | B23 |
| binds | B24 |
| binds | B25 |
| binds | B26 |
| binds | B27 |
| binds | B28 |
| binds | B29 |
| binds | B30 |
| binds | B31 |
| binds | B32 |
| binds | B33 |
| binds | B34 |
| binds | B35 |
| binds | B36 |
| binds | B37 |
| binds | B38 |
| binds | B39 |
| binds | B40 |
